# Experiment: yeast display, Sf9 membrane polyspecificity reagent, FACS + sequencing; frameworks hold sequencing errors
# In short: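 A synthetic nanobody library was expressed on Saccharomyces cerevisiae BJ5465 by galactose induction for 36–48 hours. The library was stained for 1 hour at 4 °C with 10% biotinylated, detergent-solubilized Sf9 membrane reagent and enriched with streptavidin microbeads before FACS. Low and high (top ~1%) gates were set on anti-HA fluorescence for expression and streptavidin fluorescence for reagent binding, and each polyreactivity label reflects the gate of origin.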
row,Sequence,polyreactivity (PSR sort gate)
1,QVQLVESGGGLVQAGGSLRLSCAASGSIFLIYAMGWYRQAPGKERELVAAINYSGVRTYYADSEKGRFTISRDYAKNTLYLPMNSLKPEETAVYYCAPDATSYSYRYNYWGQGTQVTVSS,high polyreactivity
2,QVQLVESGGGLVQAGGSLRLSCAASGFTFARYAMGWYRQAPGKERELVAAMTYRGGSTYYADSVKGRFTISRDNAKNTVYLQMNSLKPEDTAVYYCNAGRLWFPGVPEYDYWGQGTQVTVSS,high polyreactivity
3,QVQLVESGGGLVQAGGSLRLSCAASGITFYYYAMGWYRQAPGKERELVASIDNSGGSTYYADSVKGRFTISRDNEKNTVYLQMHSLKPEDTAVYFCAAVSRYYFLGVAFLDDYWGQGTLVTVSS,high polyreactivity
4,QVQLVESGGGLVQAGGSLRVSCAASGSIFYSNAMGWYRQAPGKERELVAAITRRGGSTYYADSVKGRFTISRDIATNPVYLQMNSLIPEDTAVYYCAARSKTSNLFNYWGQGTQVTVSS,high polyreactivity
5,QVQLVESGGGLVQAGGSLRLSCAASGRTFTYNVLGWYRVAPGKERELVAAITSGGSNYADSVKGRFTISRDNAKNTVYLQLNSLKPEDTAGYYCATDYYDDVTIGYDYWGPGTQVTVSS,low polyreactivity
6,QVQLVESGGGLVQAGGSLRLICAASGSIFWAYAMGWYRQAPGKERELVAAISSSGGRTYYADSVKGRFTISRDNAKNTVYFQMNSLNPEDTAVYYCAARSYSGYSPTFDYWGQGTQVTVSS,high polyreactivity
7,QVQLVESVGGLVQAGGSLRLSCAASGSIRSYAIGWYRQAPGKERELVAAITRSGGSTYYADSVKGRFTISRDNAKNTVYLQMISLKPEDTAVYYCAARYTYSYPLFGSWGQGTQVTVSS,high polyreactivity
8,QVQLVESGGGLVQAGGSLRLSCAASGITFYTYAMGWYRQAPGKERELVAAITWRGGRTSYADSVKGRFTISRDNAKNTVYLQMNSLKPEDTAVYYCAKEAHPPWTSQDVFRSYDYWGQGTQVTVSS,low polyreactivity
9,QVQLVESGGGLVQAGGSLRLSCAASGSTFKIYAMAWYRQAPGKERELVAAITGSGGSTYYADSVKGRFTISRDNAKNTVYLQMNSLKPEDTAVYYCAVDVYYYVATEFYEYDYWGQGTQVTVSS,high polyreactivity
10,QLQLVESGGGLVQAGGSLRLSCAASGSIFNIYAMGWYRQAPGKERELVATITGIADYTYYADSVMGRFTISRDNAKNTVYLQMNSLKPEDTAVYYCAADKYVSEYDYWGQGTQVTVSS,low polyreactivity
11,QVQLVESGGGLVQAGCRLRLSCAASGFIFCYNAMGLYRQAPGKERELVAAITTAGSTNYADSVKGRFTISRDNAKNTVYVQMNSLKPEDTAVYYCNKVQLRNRYPYRYGFGDVGYWGQGTQVTVSS,low polyreactivity
12,QVQLVESGGGLVQAGGSLRLSCAASGRIFANNAMGWYRQAPGKERELVAAISWRSGGTYYADSVKGRFTISRDNAKNTVYLQMNSLKPEDTAVYYCARRSPHHGRDYWGQGTQVTVSS,low polyreactivity
13,QVQLVVSGGGLVQAGGSLRLSCAASGIIFSPYALGWYIQAPGKERELVAAISYSGGSTYYADSVKGRFTISRDNAKNTVYLQMNSLKPEDTAVYYCAVVYSYYLAVMGYWDYDYWGQGTQVTVSS,low polyreactivity
14,QFQLVESGGGLVQAGGSLRLSCAASGSIFPGYAMGWYRQAPGKERELVAAITVSGVSTYYADSVKGRFTISRDNEKNTVYLQMNSLKPEDTAVYYCARDNWQLYPSTWYDYWGQGTQVNVSS,high polyreactivity
15,QVQLVESGGGLVQAGGSLRLSCAASGSTFVYYAMGWYRQAPGKERELVAAITASGGRTYYADSVKGRFTISRDNAKNTVYLQMNSLKPEDTAVYYCNTVRPHGMDYWGQGTQVTVSS,high polyreactivity
16,QVQLVESGGGLVQAGGSLRLSCAASGRTFNVYAMGWYRQAPGKERELVAVITNGGSTNYADSVKGRFTISRDNAKNTVYLQMNSLKPEDTAVYYCAGDYYASLTREDRDDYWGQGTQVTVSS,low polyreactivity
17,QVQLVESGGGLVQAGGSLRLSCAASGSIFTLNAMGWYRQATGKEREFVAAITLRSGSTYYADSVKGRFTISRDNAKNTVYLQMNSLKPEDTAVYYCAARRTRYIYYYWGQGTQVTVSS,high polyreactivity
18,QVQLVESGGGLVQAGGSLRLSCAASGSTFRYNAMGWYRQAPGKERELVAGISYRGGTTYYADSVKGRFTISRDNAKNTVYLQMNSLKPEDTAVYYCAADSRAKRYYWGQGTQVTVSS,high polyreactivity
19,QVQLVESGGGLVQAGGSLRLSCAASGSIFVYNAMGWYRQAPGKEREMVARITYIGTSTYYADSVKGRFTISRDNAKNSVYLQMNSLKPEDTGVYYCNARRRHEGSPPYGYWGQGTQVTVSS,high polyreactivity
20,QVQLVESGGGLVQAGGSLRLSCADSGNILGYNAMGSYRQAPGKATELVAAISDNADSTYYADSVKGRFTISRDNAKNTVYLQMKSLKPEDTAVYYGAADWVHRTWLFWYTKYDYWGQGTQVTVSS,low polyreactivity

row,Sequence,polyreactivity (PSR sort gate)
1,QVQLVESGGGLVQAGGILRLSCAASGIIFQRNEMGWYRQTPGKERELVANIRDGGITYADSVKGRFTISRDNAKNTVYLEMNSLKPEDTAVYYCARDDTSPGYCDQSSNAAYYYWGQGTQVTVSS,low polyreactivity
2,QVHLVESGGGIVQAGGSLRLSCAASGSTFGYYAMGWYRQAPGKERELVAAITTRGTRTYADSVKGRFTISRDNAKNTVYLQMNSLKPEDTAVYYCNAYEWGDFVLYTTDYDYWGQGTHVTVSS,high polyreactivity
3,QVQLVESGGGLVQAGGSLRLSCAASGFIFGSNAMGWYRQAPGQERELVAAIDSSGGRTNYADSVKGRFTISRDNAKNTVYLQMNSLKPEDTAVYYCNVYRWSQLFEYDYWGQGTQVTVSS,high polyreactivity
4,QVQLVESGGGLVQAGGSLRLSCAASGSIFYYYAMGWYRQAPGKERELVAAITVSGGRTYYADSVKGRFTISRDNAKNTVYLQMNSLKPEDTAVYYCAAQIYGKYDYWGQGTQVTVSS,low polyreactivity
5,QVQLVESGGGLVQAGGSLRLSCAASGLTFSYNAMGWYIQAPGTERELVAAINWSGGSTYYADSVKGRFTISRDNAKNTVYLPMNSLKPEDTAVYYCAADIYSKGGRGLYYWGQGTQLTVSS,high polyreactivity
6,QVQLVESGGGLVQAGGSLRLSCAASGSIFAYNAMGWYRQAPGKERELVAGISSRGGRTYYADSVKGRFTISRDNAKNTVYLQKNSLKPEDTAVYNCNKRSVPGTYYPTPVRYKYDYWGQGTQVTVSS,high polyreactivity
7,QVQLVESGGGLVQAGGSLRLSCAASGNTFYPKDMGWYRQAPGKERELVAAITTNDGDTYYADSVKGRFTISRDNAKNTVYLQMNRLKPEDTAVYYCAADSGSTSEYEYWGQGTQVTVSS,low polyreactivity
8,QVQLVESGGGLVQARGSLRLSCAASGSTFYYYAMGWYRQAPGKEREFVAAISWTGGTTYYADSVKGRFTISRDIAKNTVYLQMNSLKPEDTAVYYCNADPWWDSDWGYDYWGQGTQVTVSS,low polyreactivity
9,QVQLVESGGGLVQAGGSLRLSCAASGSTLGRYAMGWYRQAPGKERELVAAISRGGGSTYYADSVKGRFTISRDNAKNTVYLQMNSLKPEYTAVYYCAVGIVHRDSRYYYWGQGTQVTVSS,high polyreactivity
10,QVQLVESGGGLVQAGGSLRLSCAASGGTFYGYAMGWYRQAPGKERELVAAINYRGGRTYYADSVKGRFTISRDNAKNTVYLQMNSLKPEDTAVYDCAATSDRLDGYDYWGQGTQVTVSS,high polyreactivity
11,QVQLVESGGGLVQAGGRLRLSCAASGRTFKLYAMGWYRQAPRKERELVAAITESGGSTYYADTVKGRFTISRDNAKNTVYLQMNILKPEDTAVDYCARVLQYQKRNDYEYWGQGTQVTVSS,low polyreactivity
12,QVQLVESGGGLVQAGGSLRLSCASSGRISASYAMGWYRQAPGKERELVAAITGSGGSTYYADSVKGRFTISRDNAKNTVYLQMNSLKPEDTAVYYCAAEPGLSVFFEFDSWGQGTQVTVSS,low polyreactivity
13,QVQLVESGGGIVQAGGSLRLSCAASGSIFSYYAMGWYRQAPGKERELVAAITSGGATTYYADSVKGRFTISRDNAKNTVYLQMNSLKPEDTAVYYCAAGYYVYYRWWELDYWGQGTQVTVSS,low polyreactivity
14,QVQLVESGGGLVQAGGSLRLSCAASGRIFTSYAMGWYRQAPGKERELVAAITSGGRTYYADSVKGRFTISRDNAKNTVYLQKNSLKAEDTAVYYCNAPRYLRYNYCGQGTQVTVSS,high polyreactivity
15,QVQLVESGGGLVQAGGSLRLSCAASGSIFGEYAMGWSRQAPGKERELVATIRQSGDSTYYADSVKGRFTISRDNAKNTVYLQMNSLKPEDTEVYYCADDLWLYDYYSEYDYWGQGTQVTVSS,low polyreactivity
16,QVQLVESGGGLVQAGGSLRLSCAASGRTFGPYAMGWYRQAPGKERELVAAISRSGSSTYYADSVKGRFTISRDTGKNNVYLQMNSLKPEDTAVYDCAVARSSPEYYYWGQGTQVTVSS,high polyreactivity
17,QVQLQESGGGMVQAGGSLRLSCAASGYISWADYMGWYRQAPGKERELVAGIGYGSTTYYADSVKGRFTISRDNAKNTAYLQMNSLKPEDTAVYYCSVGWYRDTAYKYWGQGTQVTVSS,low polyreactivity
18,QVQLVESGGGLVQAGGSLGLSCAASGRMFGYYTLGWYRQAPGKERELVAAITSSGGRTYYADSVKGRFTISRDYAKNTVYLQMNSLKPEDTAVYYCAADVEWTSRGSYYRYYYWGQGTQVTVSS,low polyreactivity
19,QVQLVESGGGLVQAGGSLRLSCAASGRTFYGYAMGWYRQPPGKERELVATISGSGGTTYYADSVKGRFTISRDNAKNTVYLQMNSLKPEDTAVYYCAADRYLYFYWWPHVGGSPTYGYWGQGTQVTVSS,high polyreactivity
20,QVQLVESGGGLVQAGGSLRLSCAASGSIFDYNAMGWYRQAPGKEREFVAAISSSAGSTYYADSVKGRFTISRDNAKNTVYLEMNSLKPEDTAVYYCAADWYDFSFPYYEYEYWGQGTQVTVSS,low polyreactivity
